Measured values published in patent US20110263824A1.

Molecular target: human serum protein
Assay: human serum (1:800) adsorbed to TM2 variant-immobilized magnetic beads, HRP-labeled anti-human IgG detection

- Non-specific binding to serum protein (A450): 0.56 A450
Substance: TM2 D40NR104E
